Series [1] addresses T1, human heat shock transcription factor Hsf1, wild type (human), Q00613.
T1 chain: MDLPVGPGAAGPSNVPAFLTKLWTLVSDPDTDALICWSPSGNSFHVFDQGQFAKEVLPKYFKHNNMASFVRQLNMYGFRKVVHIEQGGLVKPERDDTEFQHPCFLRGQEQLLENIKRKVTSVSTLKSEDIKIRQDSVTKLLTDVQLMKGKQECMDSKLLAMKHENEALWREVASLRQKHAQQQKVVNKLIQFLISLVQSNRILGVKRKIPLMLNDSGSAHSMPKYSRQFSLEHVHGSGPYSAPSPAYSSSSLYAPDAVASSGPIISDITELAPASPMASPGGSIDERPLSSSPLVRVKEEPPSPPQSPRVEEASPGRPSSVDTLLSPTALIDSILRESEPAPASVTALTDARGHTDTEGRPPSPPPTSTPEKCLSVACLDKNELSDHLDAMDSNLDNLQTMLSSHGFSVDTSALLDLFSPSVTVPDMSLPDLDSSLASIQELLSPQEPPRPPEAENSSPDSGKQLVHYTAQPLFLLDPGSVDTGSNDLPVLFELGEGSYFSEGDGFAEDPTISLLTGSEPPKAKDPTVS
The series is described as follows: HDX-MS; kinetics: 5 µM Hsf1 heat-shocked 10-1000 s at 35, 37, 39 or 42°C, then 30 s in D2O at 20°C; single exponential fits of the low-exchanging fraction. As to conditions: remark: other sources report otherwise.

The target of series [2] is T1, human heat shock transcription factor …. Put plainly: HDX-MS + fluorescence polarisation; monomer to dimer; fit of the quadratic solution of the law of mass action to Tm values (10 min incubation, wild type) against Hsf1 concentration, assuming the fraction of dimer determines Tm; rough estimate. As to conditions: remark: other sources report otherwise.
For series [3] the target is unchanged. Put plainly: SEC; S200 HiLoad 16/60 in Hsf1-buffer (25 mM Hepes pH 7.4, 150 mM NaCl, 10% glycerol, 2 mM DTT), 4°C, after Ni-IDA and cleavage of the SUMO tag. The following applies: remark: other sources report otherwise.
Series [4] shares this target. Put plainly: native gel or EMSA; blue native polyacrylamide gel; monomeric Hsf1 after heat shock (42°C; pre-incubation at different temperatures for 10 min), Hsf1-buffer; also detected by immunoblot with Hsf1 antiserum. The following applies: remark: other sources report otherwise. (Mobility shift assays separate free from complexed probe on a gel.)
Series [5] concerns the molecule itself. Put plainly: HDX-MS; 5 µM Hsf1 or mutant in Hsf1-buffer pre-incubated 10 or 30 min at 20-42°C, diluted 1:20 into D2O buffer, 30 s at 20°C, quenched, online pepsin, LC-MS.

Where a chain is given by its changes, count along the chain named. Names and notes keep the numbering of the source. Values joined by “and” are separate entries in the source; they are usually repeats but may differ in a detail not shown here. Equal entries are not always repeated.

B1: human heat shock transcription factor Hsf1, wild type, Q00613 1-529 (natural protein)
chain: T1 chain
The Kd is the concentration at which binding is half-saturated. As a reminder, the stoichiometry N is a count of units in the complex or per binding partner. In series [1], B1 displayed a rate of increase of the low-exchanging HR-A/B population (trimerization) at 35°C of 0.0018 s⁻¹, a rate of increase of the low-exchanging HR-A/B population (trimerization) at 37°C of 0.0033 s⁻¹, a rate of increase of the low-exchanging HR-A/B population (trimerization) at 39°C of 0.0094 s⁻¹ and a rate of increase of the low-exchanging HR-A/B population (trimerization) at 42°C of 0.016 s⁻¹. Moreover, the dissociation constant Kd in series [2] was 330 nM. In addition, in series [3], the stoichiometry N was 2 and 3. Further, the stoichiometry N in series [4] amounted to 3.

B2: human Hsf1-S303D (natural protein, UniProt Q00613 1-529, looked up)
chain: T1 chain with S303D
notes: heat shock transcription factor 1 (Hsf1), human, phosphomimetic variant S303D; Probably made and purified as the wild type (6xHis-SUMO fusion in E. coli, tag cleaved); also called phosphomimetic Hsf1 variant
Regarding B2, in series [5], the binding result was “binds”.

B3: human Hsf1-S307D (natural protein, UniProt Q00613 1-529, looked up)
chain: T1 chain with S307D
notes: heat shock transcription factor 1 (Hsf1), human, phosphomimetic variant S307D; Probably made and purified as the wild type (6xHis-SUMO fusion in E. coli, tag cleaved); also called phosphomimetic Hsf1 variant
B3: the binding result in series [5] is recorded as “binds”.

These data come from publication PMC4775227, “Molecular mechanism of thermosensory function of human heat shock transcription factor Hsf1” (eLife, 2016).
